Patent US20150197564A1

Molecular target: hANGPTL3(17-460)-His (human) (UniProt Q9Y5C1)
Test: Biacore cross-competition, 25C; first antibody at 25 µg/ml on captured antigen

Chain of hANGPTL3(17-460)-His (human) (Q9Y5C1 other isoform, or with tags, fused parts or gaps): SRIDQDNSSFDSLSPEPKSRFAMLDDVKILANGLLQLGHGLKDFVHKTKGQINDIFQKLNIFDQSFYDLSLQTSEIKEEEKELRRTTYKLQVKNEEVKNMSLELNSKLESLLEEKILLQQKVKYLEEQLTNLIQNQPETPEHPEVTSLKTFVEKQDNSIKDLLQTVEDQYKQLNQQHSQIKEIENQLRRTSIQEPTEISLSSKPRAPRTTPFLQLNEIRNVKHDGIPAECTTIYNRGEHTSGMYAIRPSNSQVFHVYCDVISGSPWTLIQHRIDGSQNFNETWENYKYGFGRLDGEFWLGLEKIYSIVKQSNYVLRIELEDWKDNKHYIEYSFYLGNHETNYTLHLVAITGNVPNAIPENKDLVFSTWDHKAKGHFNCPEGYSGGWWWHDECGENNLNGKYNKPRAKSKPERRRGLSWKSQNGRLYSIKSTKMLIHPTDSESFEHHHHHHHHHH

mAb1 binding response (RU): 81 RU
Substance: Negative Control (Table 8) (antibody)
